{
  "source": "patent US20200345839A1",
  "about": "(DESENTUM, published 2020)",
  "target": "the molecule itself",
  "assay": "native ESI FT-ICR mass spectrometry, 40 uM in 10 mM ammonium acetate (self-association)",
  "description": "The mass spectrometric experiments were performed with a 12T solariX XR mass spectrometer (Bruker Daltonics, Billerica, Mass., USA), equipped with an Apollo II ion funnel electrospray source. Before a mass spectrometric analysis, the protein sample was exchanged into an ESI-MS compatible ammonium acetate buffer (10 mM, pH 6.9) by using disposable PD-10 desalting columns (GE Healthcare). For mass spectrometric measurements in denaturing solution conditions, protein sample was diluted to 0.2 μM with acetonitrile/water/acetic acid solution. The protein solution was directly infused into the ion source by a syringe pump with a flow rate of […]. The temperature of the drying gas was 200° C. and the pressure of the nebulizing gas was 1.0 bar. Mass spectra were acquired in the positive ion mode over the m/z range of 800-3000 with 1-Mword time-domain transients and 0.05 sec ion accumulation. […] Desalted protein samples were usually measured at a concentration of 40 μM in 10 mM ammonium acetate buffer. Typically, 100 co-added 256-kword time-domain transients were recorded and processed to 512-kword data prior to fast Fourier transform and frequency to mass conversion. The wild-type Equ c 1 allergen and the Equ c 1 mutants were measured using the same instrumental parameters, in order to avoid any bias between the protein samples. […]",
  "data": [
    {"protein": "recombinant wild-type Equ c 1 allergen (other, Reported to exist mainly as a dimer at 40 uM; also called rEqu c 1 wt; wt rEqu c 1) QQEENSDVAIRNFDISKISGEWYSIFLASDVKEKIEENGSMRVFVDVIRALDNSSLYAEYQTKVNGECTEFPMVFDKTEEDGVYSLNYDGYNVFRISEFENDEHIILYLVNFDKDRPFQLFEFYAREPDVSPEIKEEFVKIVQKRGIVKENIIDLTKIDRCFQLRGNGVAQA", "values": [
      {"measurement": "binding result", "value": "binds"}
    ]}
  ]
}
